How the values were obtained:
human B7-H3 on cells [1] = molecular target: T1, human B7-H3 on cells (human, UniProt Q5ZPR3 29-534); test: cell-based or functional assay
T1 sequence (looked up): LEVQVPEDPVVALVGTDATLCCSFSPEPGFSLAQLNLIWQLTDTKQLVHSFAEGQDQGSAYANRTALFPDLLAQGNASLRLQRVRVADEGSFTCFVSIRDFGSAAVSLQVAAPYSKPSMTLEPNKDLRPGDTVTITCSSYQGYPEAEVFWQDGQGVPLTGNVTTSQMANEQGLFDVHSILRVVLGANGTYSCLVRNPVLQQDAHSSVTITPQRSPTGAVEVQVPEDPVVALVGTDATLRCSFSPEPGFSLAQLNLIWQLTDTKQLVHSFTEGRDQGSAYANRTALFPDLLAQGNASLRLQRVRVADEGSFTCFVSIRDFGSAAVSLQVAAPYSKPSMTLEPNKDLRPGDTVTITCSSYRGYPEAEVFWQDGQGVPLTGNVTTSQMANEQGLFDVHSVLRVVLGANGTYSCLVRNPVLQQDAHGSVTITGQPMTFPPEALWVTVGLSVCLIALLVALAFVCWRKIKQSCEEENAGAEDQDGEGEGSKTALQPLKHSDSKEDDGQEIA

human B7-H3 on cells [2] = molecular target: T1, human B7-H3 on cells; test: cell-based or functional assay; remark: listed apart in the source
human B7-H3 on cells [3] = molecular target: T1, human B7-H3 on cells; test: cell-based or functional assay; remark: listed apart in the source
Cynomolgus B7-H3 = molecular target: T2, Cynomolgus B7-H3 (cynomolgus monkey); test: SPR (BIAcore)
T2 chain: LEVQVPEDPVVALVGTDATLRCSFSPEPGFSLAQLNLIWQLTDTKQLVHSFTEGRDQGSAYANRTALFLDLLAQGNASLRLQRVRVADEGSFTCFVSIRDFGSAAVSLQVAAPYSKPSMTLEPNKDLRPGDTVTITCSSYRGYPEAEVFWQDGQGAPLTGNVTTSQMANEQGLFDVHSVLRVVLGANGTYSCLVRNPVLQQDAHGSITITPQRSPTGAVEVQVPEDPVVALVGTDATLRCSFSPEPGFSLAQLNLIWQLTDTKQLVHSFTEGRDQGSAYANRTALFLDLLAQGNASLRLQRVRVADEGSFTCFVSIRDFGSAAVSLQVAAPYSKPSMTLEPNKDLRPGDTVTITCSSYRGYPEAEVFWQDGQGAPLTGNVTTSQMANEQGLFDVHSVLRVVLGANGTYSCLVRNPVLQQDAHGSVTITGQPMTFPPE

B1: DART-B (bispecific antibody)
chain 1: DIQMTQSPSSLSASVGDRVTITCRASQDISNYLNWYQQKPGKAPKLLIYYTSRLHSGVPSRFSGSGSGTDFTLTISSLQPEDIATYYCQQGNTLPPTFGGGTKLEIKGGGSGGGGEVQLVESGGGLVQPGGSLRLSCAASGFTFSTYAMNWVRQAPGKGLEWVGRIRSKYNNYATYYADSVKDRFTISRDDSKNSLYLQMNSLKTEDTAVYYCVRHGNFGNSYVSWFAYWGQGTLVTVSSGGCGGGEVAALEKEVAALEKEVAALEKEVAALEKGGGDKTHTCPPCPAPEAAGGPSVFLFPPKPKDTLMISRTPEVTCVVVDVSHEDPEVKFNWYVDGVEVHNAKTKPREEQYNSTYRVVSVLTVLHQDWLNGKEYKCKVSNKALPAPIEKTISKAKGQPREPQVYTLPPSREEMTKNQVSLWCLVKGFYPSDIAVEWESNGQPENNYKTTPPVLDSDGSFFLYSKLTVDKSRWQQGNVFSCSVMHEALHNHYTQKSLSLSPGK
chain 2: QAVVTQEPSLTVSPGGTVTLTCRSSTGAVTTSNYANWVQQKPGQAPRGLIGGTNKRAPWTPARFSGSLLGGKAALTITGAQAEDEADYYCALWYSNLWVFGGGTKLTVLGGGGSGGGGQVQLVQSGAEVKKPGASVKVSCKASGYTFTSYWMQWVRQAPGQGLEWMGTIYPGDGDTRYTQKFKGRVTITADKSTSTAYMELSSLRSEDTAVYYCARRGIPRLWYFDVWGQGTTVTVSSGGCGGGKVAALKEKVAALKEKVAALKEKVAALKE
chain 3: not shown
notes: Three-chain Fc diabody; also called B7-H3×CD3 bispecific monovalent Fc diabody
For B1, the “potency of redirected cell killing against DART-A (target cell lines including A498, THP-1 and DU145)” value (human B7-H3 on cells [1]) was roughly 6 fold.

B2: DART-A (bispecific antibody)
chain 1: DIQLTQSPSFLSASVGDRVTITCKASQNVDTNVAWYQQKPGKAPKALIYSASYRYSGVPSRFSGSGSGTDFTLTISSLQPEDFATYYCQQYNNYPFTFGQGTKLEIKGGGSGGGGEVQLVESGGGLVQPGGSLRLSCAASGFTFSTYAMNWVRQAPGKGLEWVGRIRSKYNNYATYYADSVKDRFTISRDDSKNSLYLQMNSLKTEDTAVYYCVRHGNFGNSYVSWFAYWGQGTLVTVSSGGCGGGEVAALEKEVAALEKEVAALEKEVAALEKGGGDKTHTCPPCPAPEAAGGPSVFLFPPKPKDTLMISRTPEVTCVVVDVSHEDPEVKFNWYVDGVEVHNAKTKPREEQYNSTYRVVSVLTVLHQDWLNGKEYKCKVSNKALPAPIEKTISKAKGQPREPQVYTLPPSREEMTKNQVSLWCLVKGFYPSDIAVEWESNGQPENNYKTTPPVLDSDGSFFLYSKLTVDKSRWQQGNVFSCSVMHEALHNHYTQKSLSLSPGK
chain 2: QAVVTQEPSLTVSPGGTVTLTCRSSTGAVTTSNYANWVQQKPGQAPRGLIGGTNKRAPWTPARFSGSLLGGKAALTITGAQAEDEADYYCALWYSNLWVFGGGTKLTVLGGGGSGGGGEVQLVESGGGLVQPGGSLRLSCAASGFTFSSFGMHWVRQAPGKGLEWVAYISSDSSAIYYADTVKGRFTISRDNAKNSLYLQMNSLRDEDTAVYYCGRGRENIYYGSRLDYWGQGTTVTVSSGGCGGGKVAALKEKVAALKEKVAALKEKVAALKE
chain 3: not shown
notes: Three-chain Fc diabody, one B7-H3 site and one CD3 site; chains are disulfide bonded; also called B7-H3×CD3 bispecific monovalent Fc diabody
For B2, the “EC50 of redirected killing, A375 target cells, E:T 1:1 (LDH assay)” value (human B7-H3 on cells [2]) was 0.352 µg/mL, the “EC50 of redirected killing, A375 target cells, E:T 5:1 (LDH assay)” value (human B7-H3 on cells [2]) was 0.243 µg/mL and the “EC50 of redirected killing, A375 target cells, E:T 10:1 (LDH assay)” value (human B7-H3 on cells [2]) was 0.166 µg/mL. The “EC50 of redirected killing, A498 target cells, E:T 1:1 (LDH assay)” value (human B7-H3 on cells [2]) was 0.129 µg/mL, the “EC50 of redirected killing, A498 target cells, E:T 5:1 (LDH assay)” value (human B7-H3 on cells [2]) was 0.0425 µg/mL and the “EC50 of redirected killing, A498 target cells, E:T 10:1 (LDH assay)” value (human B7-H3 on cells [2]) was 0.0272 µg/mL. The “EC50 of redirected killing, 22Rv1 target cells, human T cells, E:T 5:1” value (human B7-H3 on cells [3]) was 0.212 µg/mL, the “EC50 of redirected killing, A375 target cells, human T cells, E:T 5:1” value (human B7-H3 on cells [3]) was 0.097 µg/mL and the “EC50 of redirected killing, A498 target cells, human T cells, E:T 5:1” value (human B7-H3 on cells [3]) was 0.064 µg/mL. The “EC50 of redirected killing, BxPC-3 target cells, human T cells, E:T 5:1” value (human B7-H3 on cells [3]) was 0.196 µg/mL, the “EC50 of redirected killing, DU145 target cells, human T cells, E:T 5:1” value (human B7-H3 on cells [3]) was 0.084 µg/mL and the “EC50 of redirected killing, Detroit562 target cells, human T cells, E:T 5:1” value (human B7-H3 on cells [3]) was 1.28 µg/mL. The “EC50 of redirected killing, JIMT-1/Luc target cells, human T cells, E:T 5:1” value (human B7-H3 on cells [3]) was 0.047 µg/mL, the “EC50 of redirected killing, SKMES-1 target cells, human T cells, E:T 5:1” value (human B7-H3 on cells [3]) was 0.319 µg/mL and the “EC50 of redirected killing, U87 target cells, human T cells, E:T 5:1” value (human B7-H3 on cells [3]) was 0.099 µg/mL. The Kd (Cynomolgus B7-H3) was 30.2 nM, the koff (Cynomolgus B7-H3) was 0.0051 s⁻¹ and the kon (Cynomolgus B7-H3) was 170000 M⁻¹ s⁻¹.

From patent publication US20190002563A1 (MacroGenics, published 2019)
